# B1: rsCD6, recombinant soluble ectodomain of human CD6 (amino acids D25 to E384, immature protein numbering) (receptor, UniProt P30203 25-384, looked up)
# chain: DQLNTSSAESELWEPGERLPVRLTNGSSSCSGTVEVRLEASWEPACGALWDSRAAEAVCRALGCGGAEAASQLAPPTPELPPPPAAGNTSVAANATLAGAPALLCSGAEWRLCEVVEHACRSDGRRARVTCAENRALRLVDGGGACAGRVEMLEHGEWGSVCDDTWDLEDAHVVCRQLGCGWAVQALPGLHFTPGRGPIHRDQVNCSGAEAYLWDCPGLPGQHYCGHKEDAGAVCSEHQSWRLTGGADRCEGQVEVHFRGVWNTVCDSEWYPSEAKVLCQSLGCGTAVERPKGLPHSLSGRMYYSCNGEELTLSNCSWRFNNSNLCSQSLAARVLCSASRSLHNLSTPEVPASVQTVTIE
# notes: range 25-384; Used as unpurified serum-free culture supernatant to coat wells in the gp120 ELISA; also called recombinant soluble CD6; rCD6
# Biological target: Bovine Serum Albumin (BSA) (bovine, UniProt P02769 25-607)
# Sequence (P02769 25-607 limits assumed): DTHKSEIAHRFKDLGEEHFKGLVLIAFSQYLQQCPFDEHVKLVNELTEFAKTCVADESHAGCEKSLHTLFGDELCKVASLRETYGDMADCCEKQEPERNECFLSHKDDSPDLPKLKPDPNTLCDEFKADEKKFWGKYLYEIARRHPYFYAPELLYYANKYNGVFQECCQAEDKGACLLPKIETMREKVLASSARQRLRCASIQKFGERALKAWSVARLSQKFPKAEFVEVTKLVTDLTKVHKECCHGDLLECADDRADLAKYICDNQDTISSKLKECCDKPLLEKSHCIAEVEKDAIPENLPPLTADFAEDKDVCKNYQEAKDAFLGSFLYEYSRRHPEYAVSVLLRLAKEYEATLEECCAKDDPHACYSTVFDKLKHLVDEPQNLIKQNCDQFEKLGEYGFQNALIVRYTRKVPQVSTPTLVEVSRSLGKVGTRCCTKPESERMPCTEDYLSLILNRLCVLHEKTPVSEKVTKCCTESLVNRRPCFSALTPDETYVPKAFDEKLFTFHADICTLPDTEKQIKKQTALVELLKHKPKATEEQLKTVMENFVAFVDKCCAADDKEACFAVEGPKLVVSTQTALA
# Assay: ELISA, BSA coated on the plate, rsCD6 added at several concentrations, detected with biotin-labeled anti-CD6 mAb (MAE) and streptavidin-HRP
# Description: Twelve μg of LPS purified from E. coli O111:B4 (Sigma), Zymosan from Saccharomyces cerevisae (Sigma), peptidoglycan purified from S. aureus (Fluka) or Bovine Serum Albumin (BSA), were used to coat 96-well microtiter plates (Nunc, Roskilde, Denmark) in PBS, overnight at 4° C. Non-specific binding to the wells was prevented by the addition of PBS containing 1% BSA for 1 h at room temperature. Several concentrations of rsCD6 were then added to the wells and incubated for 3 h at room temperature. Bound protein was detected by the addition of a 1:200 dilution of biotin-labeled mAb anti-CD6 (MAE) for 1 h at RT, followed by a 1:1000 dilution of HRP-labeled streptavidin (DAKO, Glostrup, Denmark), which was incubated for 30 min at RT. Between each incubation step, unbound protein or HRP-streptavidin was washed off three times with PBS plus 0.01% Tween-20. Color was developed by adding 3,3′,5,5′-tetramethylbenzidine liquid substrate (Sigma), and the absorbance was read at 405 nm. The assay was repeated three times with similar results.
binder,measurement,value
B1,binding result,no binding

# — patent publication US20100105622A1 (UNIVERSIDAD DE BARCELONA, published 2010)
